# Results as given in patent US20130101549A1 (Biogen, published 2013).
# T1: human HVEM-Ig (human, UniProt Q92956 39-202)
# T1 construct: Expressed and purified in house; also called HVEM-Fc; Herpes virus entry mediator-Ig
# T1 sequence (looked up): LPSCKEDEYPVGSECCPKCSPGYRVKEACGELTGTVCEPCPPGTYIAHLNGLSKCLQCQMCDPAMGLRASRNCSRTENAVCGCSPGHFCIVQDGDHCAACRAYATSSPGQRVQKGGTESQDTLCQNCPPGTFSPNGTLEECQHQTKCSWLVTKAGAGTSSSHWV
# Experiments:
# [1] = molecular target: T1, human HVEM-Ig; assay: Octet biolayer interferometry, receptor-Fc on anti-human Fc biosensor, culture supernatant
# Description: (§1) Anti-human Fc-specific biosensors (Fortebio SKU 18-0001) were hydrated in OB (1×PBS supplemented with 1 mg/ml BSA, 0.05% NaN₃, and 0.02% TWEEN 20) for at least five minutes prior to assays. For each assay, the respective receptor—Fc fusion was diluted to 10 μg/ml in OB and allowed to bind to the biosensors for five minutes. The sensors were then incubated in the indicated culture supernatant for an additional five minutes, and subsequently transferred to fresh wells […].
# [2] = molecular target: T2, human LTβR-Ig (human, UniProt P36941 31-227); assay: as above
# T2 construct: Expressed and purified in house; also called hLTbR-Ig; human LTBR-Ig
# Description: as §1
# [3] = molecular target: T3, human HER2-Fc (human, UniProt P04626 23-652); assay: as above
# T3 construct: Bought from R&D Systems: homodimeric fusion of the HER2 extracellular domain and human IgG1 Fc; also called human ErbB2-Fc; rhErbB2-Fc; not shown: Fc fragment of human IgG1
# Description: as §1
# [4] = molecular target: T1, human HVEM-Ig; assay: FACS (HVEM column of Table 2; format not told there)
# [5] = molecular target: T3, human HER2-Fc; assay: ELISA on coated HER2-Fc
# Description: (§2) Human and murine ErbB2-Fc were obtained from R&D Systems. Wells of 96-well plates were coated with 2 ug/ml or 0.2 ug/ml of human or murine HER2-Fc by incubation overnight at 4-8° C. with either of these six proteins (80 ul/well of a 0.2 or 2 ug/ml solution in PBS). Wells were emptied, filled completely with a solution of PBS with 1% BSA (blocking buffer) and incubated at room temperature for 1 hour. Wells were emptied, washed twice PBS containing 0.05% Tween 20 (PBST) and filled with the samples (80 ul/well of 3× dilution series of the standard and supernatants in blocking buffer) prepared in another 96-well plate. After a 2-hour incubation at room temperature, the wells were emptied, washed three times with PBST and filled with a solution of HRP-conjugated goat pAbs anti-human kappa chain (80 ul/well of a 2000-fold dilution in blocking buffer). After 1-hour incubation, the wells were emptied and filled with a solution of HRP substrate prepared freshly. The color was left to develop for 3 minutes and was stopped by addition of an equal volume of 1N H₂SO₄. Absorbance was measured at 450 nm using a Plate Reader (SpectraMax, Molecular Devices). The data was processed and graphs were created using SoftMax Pro software.
# [6] = molecular target: T4, murine HER2-Fc (mouse; human, UniProt P70424 23-653); assay: ELISA on coated muHER2-Fc, HRP anti-human kappa; the number is C of the printed 4-P fit (A 0.005, B 1.068, D 0.84, R^2 0.999); x axis: Fab equivalent concentration
# T4 construct: extracellular domain; Bought from R&D Systems; also called murine ErbB2-Fc; not shown: Fc fragment of human IgG1
# [7] = molecular target: T1, human HVEM-Ig; assay: ELISA on coated HVEM-Ig
# Description: as §2
# Human and murine HVEM-Ig were expressed and purified in house.
# [8] = molecular target: human LTβR on tumor cells (human, UniProt P36941 31-435); assay: cell-based or functional assay
# [9] = molecular target: T5, human HER2/ErbB2 on cells (human, UniProt P04626 23-1255); assay: FACS on HER2-expressing cells
# T5 construct: whole, on cells; also called hHER2/ErbB2; wild type HER2/ErbB
# [10] = molecular target: T2, human LTβR-Ig; assay: FACS (LTbR column of Table 2; format not told there)
# [11] = molecular target: T2, human LTβR-Ig; assay: ELISA on coated LTbR-Ig
# Description: as §2
# Human and murine LTBR-Ig were expressed and purified in house.
# [12] = molecular target: T3, human HER2-Fc; assay: ELISA on coated huHER2-Fc, HRP anti-human kappa; the number is C of the printed 4-P fit (A -0.059, B 0.832, D 1.098, R^2 0.998); x axis: Fab equivalent concentration
# [13] = molecular target: T3, human HER2-Fc; assay: ELISA on coated huHER2-Fc, HRP anti-human kappa; the number is C of the printed 4-P fit (A 0.006, B 1.142, D 0.89, R^2 1); x axis: Fab equivalent concentration
# [14] = molecular target: T4, murine HER2-Fc; assay: ELISA on coated muHER2-Fc, HRP anti-human kappa; the number is C of the printed 4-P fit (A 0.008, B 1.027, D 0.896, R^2 1); x axis: Fab equivalent concentration
# Description: as §2, with “Wells” for “Human and murine ErbB2-Fc were obtained from R&D Systems. Wells”, “coated” for “coated with 2 ug/ml or 0.2 ug/ml of human or murine HER2-Fc”, “goat antibodies against human kappa chain” for “either of these six proteins”, “5” for “0.2 or 2”
# Human and murine HER2-Fc (homodimeric fusion proteins consisting of the extracellular domain of HER2 and the Fc fragment of human IgG1) were obtained from R&D Systems. […]
# [15] = molecular target: T6, human LTBR-mIgG fusion; assay: sandwich ELISA after incubation at 200 ng/ml in human serum (cold or 37°C overnight): HER2-Fc on the plate, human LTBR-mIgG, HRP anti-mouse IgG; the signal needs both bindings at once
# T6 construct: kept apart from m25 (human Fc); not shown: exact end of the LTBR part
# Description: An ELISA assay was developed to detect LIGHT-Ab fusions after incubation with human sera. Briefly, 200 ng/mL of LIGHT-Ab fusions were incubated overnight in human serum at 37° C. The serum was assayed in sandwich ELISA as follows. HER2-Fc was immobilized to a solid surface, and was used to capture the LIGHT-Ab fusions. The serum incubated fusion proteins were added to the solid surface. Detection was effected using a human LTBR-mIgG fusion to bind to the LIGHT moiety of the fusion. Horseradish peroxidase (HRP) labeled anti-mouse IgG was used to detect bound LIGHT-Ab fusions.
# human LTβR on tumor cells, sequence (P36941 31-435): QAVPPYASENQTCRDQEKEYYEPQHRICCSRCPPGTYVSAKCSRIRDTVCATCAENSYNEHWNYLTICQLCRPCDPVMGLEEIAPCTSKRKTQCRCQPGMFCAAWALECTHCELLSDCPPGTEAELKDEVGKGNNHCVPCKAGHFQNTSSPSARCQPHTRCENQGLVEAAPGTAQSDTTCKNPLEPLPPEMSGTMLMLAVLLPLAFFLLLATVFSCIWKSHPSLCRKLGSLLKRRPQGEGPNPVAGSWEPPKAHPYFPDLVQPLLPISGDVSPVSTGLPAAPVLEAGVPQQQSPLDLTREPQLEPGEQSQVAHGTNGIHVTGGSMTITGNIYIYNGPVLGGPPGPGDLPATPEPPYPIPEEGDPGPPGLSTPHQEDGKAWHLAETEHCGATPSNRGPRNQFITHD
# T2 sequence (P36941 31-227): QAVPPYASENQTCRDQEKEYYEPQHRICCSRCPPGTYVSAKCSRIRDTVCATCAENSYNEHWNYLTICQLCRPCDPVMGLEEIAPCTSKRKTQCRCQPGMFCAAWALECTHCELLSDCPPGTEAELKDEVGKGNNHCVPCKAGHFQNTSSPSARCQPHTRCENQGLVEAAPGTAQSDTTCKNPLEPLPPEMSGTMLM
# T4 sequence (P70424 23-653): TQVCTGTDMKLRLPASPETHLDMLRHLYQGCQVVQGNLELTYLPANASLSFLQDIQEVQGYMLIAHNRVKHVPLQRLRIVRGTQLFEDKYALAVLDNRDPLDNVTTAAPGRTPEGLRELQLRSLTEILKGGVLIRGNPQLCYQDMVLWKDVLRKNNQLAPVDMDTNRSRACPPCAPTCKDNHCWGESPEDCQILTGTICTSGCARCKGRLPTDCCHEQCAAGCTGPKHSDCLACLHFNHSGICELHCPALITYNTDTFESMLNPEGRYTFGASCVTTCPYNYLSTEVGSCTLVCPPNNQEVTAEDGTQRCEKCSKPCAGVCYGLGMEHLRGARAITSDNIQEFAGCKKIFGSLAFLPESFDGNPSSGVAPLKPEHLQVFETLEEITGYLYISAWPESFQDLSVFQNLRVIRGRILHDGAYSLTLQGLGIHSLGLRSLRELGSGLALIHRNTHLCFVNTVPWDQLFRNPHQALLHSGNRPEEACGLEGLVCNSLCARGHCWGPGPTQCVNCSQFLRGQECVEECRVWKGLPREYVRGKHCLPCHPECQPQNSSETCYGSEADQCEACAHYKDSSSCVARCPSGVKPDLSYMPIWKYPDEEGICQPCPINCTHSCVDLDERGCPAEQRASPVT
# T6 sequence (chain, as listed by the source limits assumed): as the sequence (P36941 31-227) above
binder,measurement,setting,value
"71F10 Fab-hLIGHT fusion with the delta 4 linker (BIIB71F10-130) (other, Fab heavy chain - linker - human LIGHT extracellular part; assembles as a trimer of Fab-LIGHT units; also called pBIIB71F10-130; LIGHT fusion #130) heavy: EVQLLESGGGLVQPGGSLRLSCAASGFTFSSYGMVWVRQAPGKGLEWVSSISSSGGLTWYADSVKGRFTISRDNSKNTLYLQMNSLRAEDTAVYYCASPPGIAVARDYWGQGTLVTVSSASTKGPSVFPLAPSSKSTSGGTAALGCLVKDYFPEPVTVSWNSGALTSGVHTFPAVLQSSGLYSLSSVVTVPSSSLGTQTYICNVNHKPSNTKVDKKVEPKSCDKLHWRLGEMVTRLPDGPAGSWQERRSHEVNPAAHLTGANSSLTGSGGPLLWETQLGLAFLRGLSYHDGALVVTKAGYYYIYSKVQLGGVGCPLGLASTITHGLYKRTPRYPEELELLVSQQSPCGRATSSSRVWWDSSFLGGVVHLEAGEEVVVRVLDERLVRLRDGTRSYFGAFMV light: DIQMTQSPSSLSASVGDRVTITCRASQGISNYLAWYQQKPGKVPKLLIYAASTLQSGVPSRFSGSGSGTDFTLTISSLQPEDVATYYCQKYNSALLTFGGGTKVEIKRTVAAPSVFIFPPSDEQLKSGTASVVCLLNNFYPREAKVQWKVDNALQSGNSQESVTEQDSKDSTYSLSSTLTLSKADYEKHKVYACEVTHQGLSSPVTKSFNRGEC",koff,[1],0.000122 s⁻¹
same,koff,[2],0.000168 s⁻¹
same,koff,[3],0.000112 s⁻¹
same,EC50,[4],500 pM
same,EC50,[5],50 pM
same,EC50,[6],0.0114 µg/mL
same,EC50,[7],10 pM
same,"fold difference of gene expression, treated/untreated HT29 cells (qRT-PCR): CCL2 (MCP-1)",[8],1050 fold
same,"fold difference of gene expression, treated/untreated HT29 cells (qRT-PCR): CCL5 (RANTES)",[8],1220 fold
same,"fold difference of gene expression, treated/untreated HT29 cells (qRT-PCR): CCL7 (MCP-3)",[8],-527 fold
same,"fold difference of gene expression, treated/untreated HT29 cells (qRT-PCR): CCL21",[8],546 fold
same,"fold difference of gene expression, treated/untreated HT29 cells (qRT-PCR): CCR4",[8],1650 fold
same,"fold difference of gene expression, treated/untreated HT29 cells (qRT-PCR): CXCL2",[8],1130 fold
same,"fold difference of gene expression, treated/untreated HT29 cells (qRT-PCR): CXCL3",[8],1090 fold
same,"fold difference of gene expression, treated/untreated HT29 cells (qRT-PCR): CXCL5 (ENA-78/LIX)",[8],1810 fold
same,"fold difference of gene expression, treated/untreated HT29 cells (qRT-PCR): CXCL9",[8],675 fold
same,"fold difference of gene expression, treated/untreated HT29 cells (qRT-PCR): CXCL10 (IP-10)",[8],5270 fold
same,"fold difference of gene expression, treated/untreated HT29 cells (qRT-PCR): CXCL11 (I-TAC/IP9)",[8],1730 fold
same,"fold difference of gene expression, treated/untreated HT29 cells (qRT-PCR): IFNA2",[8],193 fold
same,"fold difference of gene expression, treated/untreated HT29 cells (qRT-PCR): IL5",[8],940 fold
same,"fold difference of gene expression, treated/untreated HT29 cells (qRT-PCR): IL8",[8],373 fold
same,"fold difference of gene expression, treated/untreated HT29 cells (qRT-PCR): IL10RA",[8],3440 fold
same,"fold difference of gene expression, treated/untreated HT29 cells (qRT-PCR): LTB",[8],2910 fold
same,"fold difference of gene expression, treated/untreated HT29 cells (qRT-PCR): TNF",[8],7370 fold
same,EC50,[9],500 pM
same,EC50,[10],200 pM
same,EC50,[11],10 pM
same,EC50,[12],0.00955 µg/mL
"71F10 Fab-hLIGHT fusion with the G4S delta 4 linker (BIIB71F10-131) (other, Trimer of Fab-LIGHT units; also called pBIIB71F10-131) heavy: EVQLLESGGGLVQPGGSLRLSCAASGFTFSSYGMVWVRQAPGKGLEWVSSISSSGGLTWYADSVKGRFTISRDNSKNTLYLQMNSLRAEDTAVYYCASPPGIAVARDYWGQGTLVTVSSASTKGPSVFPLAPSSKSTSGGTAALGCLVKDYFPEPVTVSWNSGALTSGVHTFPAVLQSSGLYSLSSVVTVPSSSLGTQTYICNVNHKPSNTKVDKKVEPKSCDKGGGGSLHWRLGEMVTRLPDGPAGSWQERRSHEVNPAAHLTGANSSLTGSGGPLLWETQLGLAFLRGLSYHDGALVVTKAGYYYIYSKVQLGGVGCPLGLASTITHGLYKRTPRYPEELELLVSQQSPCGRATSSSRVWWDSSFLGGVVHLEAGEEVVVRVLDERLVRLRDGTRSYFGAFMV light: DIQMTQSPSSLSASVGDRVTITCRASQGISNYLAWYQQKPGKVPKLLIYAASTLQSGVPSRFSGSGSGTDFTLTISSLQPEDVATYYCQKYNSALLTFGGGTKVEIKRTVAAPSVFIFPPSDEQLKSGTASVVCLLNNFYPREAKVQWKVDNALQSGNSQESVTEQDSKDSTYSLSSTLTLSKADYEKHKVYACEVTHQGLSSPVTKSFNRGEC",EC50,[13],0.00608 µg/mL
same,koff,[2],0.000183 s⁻¹
same,koff,[3],0.000307 s⁻¹
same,EC50,[4],500 pM
same,EC50,[5],50 pM
same,EC50,[14],0.0139 µg/mL
same,EC50,[7],10 pM
same,EC50,[9],500 pM
same,EC50,[10],200 pM
same,EC50,[11],10 pM
same,binding result,[15],binds
